“Also recorded” adds a separate entry of the source. Where two headings read alike, the source gives them in different places.
B1: GSM-192 Fab: Fab fragment of GSM-192 obtained by papain digestion (antibody, V domains shown)
VL: DIVTQSPASLAVSLGQRATISCRASESFDSYGNTFVHWYQQKPGQPPKLLIYLVSNLESGVPAGFRGRGSRTDFTLTIDPVEADDAATYYCQQNNEDPYTFGGGTKLEIKRA
VH: EVQLQQSGPELVKPGASVKIPCKASGYTFTDYNMDWMKQSHGKSLEWIGHINPNNGGTFYNQKFKDKATFIVDKSSNTAYMELRSLTSEDTAVYFCARGGGLRRGPFAYWGQGTLVTVS

Legend:
AsPC-1 cells [1] = assay: Gemcitabine co-treatment, MTT cell death assay; format: cell-based; details: Homo sapiens, ASPC1, 72 h
Method: Gemcitabine co-treatment: 10,000 AsPC-1 cells/well were seeded into 96 well flat bottom plate and incubated overnight at in a humidified incubator at 37° C. with 5% CO2. Media in wells were replaced by serum free RPMI medium containing 2.33 μM GSM-192 or PBS and 0.05, 0.1, 0.5, 1, 5, 10, 40 and 80-μM gemcitabine. The plates were further incubated for 72 hours in a humidified incubator at 37° C. with 5% CO2. MTT solutions (M5655 SIGMA) was added at 10% of total culture volume (0.5 mg/ml MTT in RPMI/IMDM without phenol red) and after 3 hours incubation, plate was washed with PBS and solubilized using MTT solvent (0.1 N HCl in anhydrous isopropanol). The read out was obtained at […]. Cell death data was plotted as a function of the log of Gemcitabine concentration and fitted on a variable slope sigmoidal regression model (GraphPad prism 8.3.0). Further, an average of IC50 from 3 experimental repeats and corresponding standard deviation was calculated.

MMP-12 = MMP-12 (Homo sapiens, UniProt P39900); assay: Enzymatic activity of related MMPs (fluorogenic peptide); format: biochemical; details: in vitro
MMP-12, sequence (P39900 106-470): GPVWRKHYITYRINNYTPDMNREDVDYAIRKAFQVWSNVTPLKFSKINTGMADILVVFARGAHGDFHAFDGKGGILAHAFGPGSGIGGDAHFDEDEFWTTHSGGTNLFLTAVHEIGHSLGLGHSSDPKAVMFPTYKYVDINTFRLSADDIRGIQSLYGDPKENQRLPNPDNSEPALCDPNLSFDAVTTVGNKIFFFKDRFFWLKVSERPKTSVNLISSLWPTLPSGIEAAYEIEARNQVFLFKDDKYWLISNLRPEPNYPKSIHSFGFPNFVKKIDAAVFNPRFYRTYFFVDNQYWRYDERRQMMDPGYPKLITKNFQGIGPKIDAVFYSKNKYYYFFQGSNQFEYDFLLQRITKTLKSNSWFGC
Method: (§1) MMP-7 enzymatic kinetic assay: The enzymatic activity of MMP-7 in the presence of GSM-192 Fab was measured at 37° C. by monitoring the hydrolysis of fluorogenic peptide Mca-Pro-Leu-Gly-Leu-Dpa-Ala-Arg-NH2 (SEQ ID NO: 10) at λex=340 nm and […] as described previously^30. A range of different concentrations of GSM-192 Fab (0-200 nM) were incubated with 10 nM of MMP-7 in 50 mM Tris-HCl buffer (pH 7.5 at 37° C.), 100 mM NaCl, 5 mM CaCl2, and 0.05% Brij-35 for 2 h at 37° C. The enzymatic reaction was initiated by addition of the fluorogenic peptide to a final concentration of 10 μM. Fluorescence was recorded immediately and continuously for 30 min.
(§2) Remarkably, considering that the immunization booster also included the common zinc motif, the antibody is fully selective for MMP-7. The effect of GSM-192 Fab fragment on the enzymatic activity of human MMP-7 was examined in vitro using a short fluorogenic peptide according to a standard protocol. The enzymatic activity of recombinant active MMP-7 was measured in the presence of increasing concentrations of the Fab fragment of GSM-192. […] Simultaneously the effect of the antibody on catalytic activity of related MMPs was measured.

MMP-9 = MMP-9 (Homo sapiens, UniProt P14780); assay: as above; format: biochemical; details: in vitro
MMP-9, sequence (P14780 94-707, species assumed): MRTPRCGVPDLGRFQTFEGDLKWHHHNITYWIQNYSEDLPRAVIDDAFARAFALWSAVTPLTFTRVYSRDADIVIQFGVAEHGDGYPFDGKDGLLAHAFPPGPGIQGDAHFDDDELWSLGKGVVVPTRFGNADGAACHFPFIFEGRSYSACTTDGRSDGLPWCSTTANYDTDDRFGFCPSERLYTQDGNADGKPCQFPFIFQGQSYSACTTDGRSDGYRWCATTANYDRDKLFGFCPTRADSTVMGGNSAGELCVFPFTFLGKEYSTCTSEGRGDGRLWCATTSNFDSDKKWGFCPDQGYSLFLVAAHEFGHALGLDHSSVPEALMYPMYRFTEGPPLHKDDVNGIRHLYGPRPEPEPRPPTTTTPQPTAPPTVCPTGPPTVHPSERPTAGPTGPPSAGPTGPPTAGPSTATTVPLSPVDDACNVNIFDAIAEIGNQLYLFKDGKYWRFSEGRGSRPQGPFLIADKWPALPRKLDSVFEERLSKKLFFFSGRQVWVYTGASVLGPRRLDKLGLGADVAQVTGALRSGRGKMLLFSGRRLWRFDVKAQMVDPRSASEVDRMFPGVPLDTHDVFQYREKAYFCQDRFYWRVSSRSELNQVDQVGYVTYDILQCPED
Method: as §1, §2

MMP-14 = MMP-14 (Homo sapiens, UniProt P50281); assay: as above; format: biochemical; details: in vitro
Method: as §1, §2

AsPC-1 cells [2] = assay: FACS Annexin-V apoptosis detection assay; format: cell-based, human; details: AsPC-1, 24 h, increasing dose
Method: FACS Annexin-V apoptosis detection assay: 70% confluent cells in 6 cm plates were treated with sterile GSM-192 Fab fragment/control anti LOXL-2 Fab fragment for 24 h and prepared for FACS using the Annexin-V FITC apoptosis detection kit (E Biosciences 88-8005-72) as described previously^53. The FACS acquisition was done using FACS LSR-II machine in Cell Quant software (Becton Dickinson) and further analysis on FlowJo software (Treestar, Inc., San Carlos, Calif.).

FasL in AsPC-1 cells = assay: Western blot of FasL expression in cell lysates; format: cell-based, human; details: AsPC-1 cell lysates, 24 hours, sub lethal concentrations
Method: Western Blots: Treated cells were lysed with RIPA buffer containing protease inhibitors and shaken intermittently while stored in ice for 30 min. The debris was removed by centrifugation at 14,000×g and supernatant was used for BCA protein determination assay. Alternatively, culture supernatants were concentrated at least 10 times using 0.2 μm centricons. Once normalized to equal protein content, sample buffer was added and heated for 3 minutes at 95° C. The denatured samples were centrifuged for 5 min at 14,000×g before 25 μL was loaded onto SDS page gel and standard blotting procedures were followed (General Protocol for Western Blotting, BioRad bulletin 6376). Primary Abs used were MMP-7 (abcam, ab5706), Fas-L (abcam, ab15285), α Tubulin Ab (sc31779).
Anti LOXL-2 (Lysyl Oxidase like 2) mAb33, produced in a similar pipeline was used as an isotype control. […] To test for molecular markers of apoptosis, Fas ligand expression was analysed by Western blot analysis. AsPC-1 cells were treated with GSM-192 Fab for 24 hours at sub lethal concentrations.

Row | Molecule | IC50 (AsPC-1 cells [1]; GEM+PBS group, 72 hours) [nM] | IC50 (AsPC-1 cells [1]; co-treatment with 2.33 uM GSM-192, 72 hours, read-out: IC50 of GEM) [nM] | effect on catalytic activity of MMP-12 (MMP-12) | effect on catalytic activity of MMP-9 (MMP-9) | effect on catalytic activity of MMP-14 (MMP-14) | Annexin V related apoptosis (AsPC-1 cells [2]) | FasL expression (FasL in AsPC-1 cells) | FasL expression (FasL in AsPC-1 cells; listed as anti MMP-7 Fab)
1 | Nc1ccn([C@@H]2O[C@H](CO)[C@@H](O)C2(F)F)c(=O)n1 [GEM, gemcitabine] | 127 ± 40.5 | 14.2 ± 1.52 | – | – | – | – | – | –
2 | B1 | – | – | not affected | not affected | only negligibly affected | induce cell death via apoptosis; also recorded: increased Annexin V related apoptosis | increase of Fas ligand (FasL) expression | overall increase in FasL levels

Source: US12291578B2, “Anti-matrix metalloproteinase 7 (MMP-7) inhibitory antibody and uses thereof” (Yeda Research and Development Co. Ltd., priority 2019, dated 2025)
